# Laboratory results from publication PMC6128205.
# Molecular target: T1, SlyA (Shigella flexneri serotype 2a 2457T) (UniProt P0A8W4)
# T1 sequence: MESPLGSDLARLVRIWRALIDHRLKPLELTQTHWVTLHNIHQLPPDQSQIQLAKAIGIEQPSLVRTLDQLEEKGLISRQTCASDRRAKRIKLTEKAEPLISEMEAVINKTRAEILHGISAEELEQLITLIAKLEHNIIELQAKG
# Experiment: EMSA
# Conditions: 10 mM Tris-HCl pH 7.5, 100 mM KCl, 1 mM EDTA, 0.1 mM DTT, 5% glycerol, 10 ug/mL BSA, room temperature 30 min
sequence,measurement,value
CAGTCTGAACGGGGTGTACACGCCGTATATGCAGGATAAACAATAATTAATTTGATCGCCCGAACAGGAATGTTTGGGCGATTTTTATTACGATAATAAAGTCTGTTTTTAATATTATCATGTTAAATGTTTATATTATAAAAAGTCGTTTTTCTGCTTAGGATTTTGTTATTTAAATTAAGCCTGTAATGCCTTGCTTCCATTGCGGATAAATCCTACTTTTTTATTGCCTTCAAATAAATTTAAGGAGTTCGAAATGGACCAGAAGCTGTTAACGGATTTCCGCTCAG (double strand) [PgadA],binding,binds
